Source: patent US20210324080A1 (JIANGSU HUAIYU PHARMACEUTICAL, published 2021)

T1: CTLA-4-hFc (immunogen A; hFc-labeled CTLA-4 extracellular domain protein) (human, UniProt P16410 36-161)
T1 construct: range 36-161; Made in HEK293 cells, purified on protein A; also called CLTA-4-hFc; CTLA-4 protein; not shown: human IgG Fc fragment (hFc) of the pCpC vector
T1 sequence (looked up): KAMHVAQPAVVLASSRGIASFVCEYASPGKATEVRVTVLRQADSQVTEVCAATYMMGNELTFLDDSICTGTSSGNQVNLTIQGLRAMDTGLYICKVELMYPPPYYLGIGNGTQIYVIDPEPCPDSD

T2: CTLA-4 on human T lymphocytes (PBMC, CD3+ T cells) (human, UniProt P16410 36-223)
T2 sequence (looked up): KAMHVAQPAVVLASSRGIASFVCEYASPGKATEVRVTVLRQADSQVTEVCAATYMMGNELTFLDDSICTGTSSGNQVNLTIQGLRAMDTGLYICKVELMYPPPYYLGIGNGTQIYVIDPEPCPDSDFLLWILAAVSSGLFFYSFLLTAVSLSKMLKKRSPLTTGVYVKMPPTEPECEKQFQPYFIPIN

T3: human CTLA-4 (Y201V), full length, on transfected cells (human, UniProt P16410 36-223)
T3 construct: whole, on cells; also called hCTLA-4; HEK293-hCTLA-4 (Y201V)
T3 sequence (looked up): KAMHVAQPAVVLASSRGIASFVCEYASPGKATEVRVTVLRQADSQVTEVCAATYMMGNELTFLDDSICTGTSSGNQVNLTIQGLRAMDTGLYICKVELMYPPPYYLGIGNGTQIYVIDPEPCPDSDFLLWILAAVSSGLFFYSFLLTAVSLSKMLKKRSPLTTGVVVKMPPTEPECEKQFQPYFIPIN

T4: recombinant His-labeled hCTLA-4 ECD protein (human, UniProt P16410 36-161)
T4 construct: extracellular domain; also called human CTLA-4 ECD; not shown: His label
T4 sequence (looked up): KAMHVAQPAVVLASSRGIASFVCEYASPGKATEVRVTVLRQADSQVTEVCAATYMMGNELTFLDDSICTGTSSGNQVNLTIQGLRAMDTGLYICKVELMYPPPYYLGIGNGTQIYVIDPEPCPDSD


Columns and labels:
[1] = target: T1, CTLA-4-hFc (immunogen A; hFc-labeled …); assay: blocking assay, CTLA-4 protein, competitor B7.2
Method: (§1) CTLA-4 extracellular domain protein (CTLA-4-hFc) was diluted with PBS to a final concentration of 1.0 μg/mL, and then added to a 96-well ELISA plate as 100 μl per well. The plate was covered with a plastic film and incubated overnight at 4° C. The plate was washed twice with plate washing solution [PBS containing 0.01% (v/v) Tween 20] on the next day, and added with blocking solution [PBS containing 0.01% (v/v) Tween 20 and 1% (w/w) BSA] and blocked at room temperature for 2 hours. […] After 2 hours, the plate was washed 3 times with a plate washing solution [PBS containing 0.01% (v/v) Tween 20]. HRP (horseradish peroxidase) labeled avidin diluent (purchased from Sigma) was added 100 microliters per well, and after the plate was incubated for 2 hours at 37° C., it was washed with plate washing solution [PBS containing 0.01% (v/v) Tween 20] for 3 times. […] TMB substrate was added to each well. After incubated at room temperature for 30 minutes, the plate was added with […] stop solution (1.0N HCl) to each well. An ELISA plate reader (SpectraMax 384plus, Molecular Device) was used to read the A450 nm value.

[2] = target: T2, CTLA-4 on human T lymphocytes (PBMC, …); assay: cell-based or functional assay
[3] = target: T1, CTLA-4-hFc (immunogen A; hFc-labeled …); assay: blocking assay, CTLA-4 protein, competitor B7.1
Method: as §1

[4] = target: T3, human CTLA-4 (Y201V), full length, on …; assay: FACS, human CTLA-4 expressing cells
[5] = target: T4, recombinant His-labeled hCTLA-4 ECD …; assay: SPR Biacore T200, antibody captured by anti-human Fc, 1:1 model
Method: Anti-human Fc IgG was fixed on flow cell 1 and 2. HBS-EP+ (10 mmol/L HEPES, 150 mmol/L NaCl, 3 mM EDTA, 0.05% P20, pH 7.4) was used as the running buffer, and anti-human Fc IgG was fixed using the fixing wizard template. The flow cells 1 and 2 connected in series with S CM5 sensor chip were activated with freshly mixed 50 mmol/L NHS and 200 mmol/L EDC. Anti-human Fc IgG was diluted to […] with 10 mmol/L NaAC (pH 4.5) and injected into activated flow cells 1 and 2. The remaining active coupling sites were blocked with 1 mol/L ethanolamine.
The recombinant His-labeled hCTLA-4 ECD protein was diluted to 50 nmol/L, and then serially diluted 4 times with HBS-EP+ buffer at a 2-fold ratio. […] Each antibody was injected into the CM5 sensor flow cell 2 at a flow rate of 10 μL/min to achieve a response of 230 RU. Then the prepared His-labeled hCTLA-4ECD protein was injected into flow cells 1 and 2 at a flow rate of 30 μL/min for 180 seconds. The buffer flow was maintained for 400 seconds for dissociation measurement (30 μL/min). To remove the tested antibody from the surface, 10 mmol/L glycine-HCl pH1.5 was injected for 20 seconds (30 μL/min). Flow cell 1 was used as a reference flow cell. The above steps were repeated for each concentration of serially diluted His-labeled CTLA-4ECD protein. The KD value of each antibody was evaluated using Biacore T200 evaluation software 1.0, and a 1:1 binding model was used to fit the data.

| % Block at 0.000128 nM [1] [%] | % Block at 0.0128 nM [1] [%] | % Block at 0.064 nM [1] [%] | % Block at 0.32 nM [1] [%] | % Block at 1.6 nM [1] [%] | % Block at 8 nM [1] [%] | % Block at 40 nM [1] [%] | % Block at 200 nM [1] [%] | IL-2 secretion, pg/ml, at 0.13 ug/ml, N = 1 [2] [pg/mL] | IL-2 secretion, pg/ml, at 0.13 ug/ml, N = 2 [2] [pg/mL] | IL-2 secretion, pg/ml, at 0.37 ug/ml, N = 1 [2] [pg/mL] | IL-2 secretion, pg/ml, at 0.37 ug/ml, N = 2 [2] [pg/mL] | IL-2 secretion, pg/ml, at 1.1 ug/ml, N = 1 [2] [pg/mL] | IL-2 secretion, pg/ml, at 1.1 ug/ml, N = 2 [2] [pg/mL] | IL-2 secretion, pg/ml, at 3.3 ug/ml, N = 1 [2] [pg/mL] | IL-2 secretion, pg/ml, at 3.3 ug/ml, N = 2 [2] [pg/mL] | IL-2 secretion, pg/ml, at 10 ug/ml, N = 1 [2] [pg/mL] | IL-2 secretion, pg/ml, at 10 ug/ml, N = 2 [2] [pg/mL] | IL-2 secretion, pg/ml, at 30 ug/ml, N = 1 [2] [pg/mL] | IL-2 secretion, pg/ml, at 30 ug/ml, N = 2 [2] [pg/mL] | Binder | other results |
| --- | --- | --- | --- | --- | --- | --- | --- | --- | --- | --- | --- | --- | --- | --- | --- | --- | --- | --- | --- | --- | --- |
| 0 | 33 | 48.4 | 84.1 | 99 | 99.2 | 99.2 | 99.2 | 1520 | 1500 | 2110 | 1960 | 2660 | 2610 | 4660 | 3330 | 5080 | 5560 | 6090 | 7540 | 97A8D1 fully human CTLA-4 antibody (human IgG1, kappa) (antibody, V domains shown, also called mAb49; mAb049) VH: QVQLVESGGGVVQPGRSLRLSCVASGFTFNNYGMNWVRQAPGKGLEWVAVIWYGGRNKFYADSVKGRFTISRDNSKNTLYLEMNSLRAEDTAVYYCARADWGGWFDPWGQGTLVTVSS VL: EIVLTQSPGTLSLSPGERATLSCRASQSVSSTYLAWYQQKPGQAPRLLIHGAFSRATGIPDRFSGSGSGPDFTLTISRLEPEDFAVYYCQQYGTSPFTFGPGTKVDIK | % Block at 0.000128 nM [3]: 0%; % Block at 0.0128 nM [3]: 6.1%; % Block at 0.064 nM [3]: 28.7%; % Block at 0.32 nM [3]: 67.8%; % Block at 1.6 nM [3]: 90.6%; % Block at 8 nM [3]: 95.2%; % Block at 40 nM [3]: 97.2%; % Block at 200 nM [3]: 98.4%; MFI at 0.000128 nM [4]: 3; MFI at 0.0128 nM [4]: 22; MFI at 0.064 nM [4]: 66; MFI at 0.32 nM [4]: 196; MFI at 1.6 nM [4]: 580; MFI at 8 nM [4]: 919; MFI at 40 nM [4]: 1020; MFI at 200 nM [4]: 1020; Kd [5]: 2.15 nM; koff [5]: 0.00087 s⁻¹; kon [5]: 405000 M⁻¹ s⁻¹ |
| 0 | 30 | 52.4 | 89.2 | 99.1 | 99.1 | 99.1 | 99.1 | 2140 | 1830 | 2370 | 2160 | 3200 | 3010 | 3770 | 3620 | 5270 | 4810 | 6840 | 7410 | 40C4C6 fully human CTLA-4 antibody (human IgG1, kappa) (antibody, V domains shown, also called mAb09; mAb009) VH: QVQLVESGGGVVQPGRSLRLSCAASGFTFSSYGMHWVRQAPGKGLEWVAVIWYDGRNKYYADSVKGRFTISRDNSKNTLYLQMNSLRAEDTAVYYCARASGSYSYYFDYWGQGTLVTVSS VL: DIQMTQSPSSLSASVGGRVTITCRASQSISSFLNWYQHELGKAPKLLIYGASSLQSGVPSRFSGSGSGTDFTLTISSLQPEDFATYYCQQTYSTPFTFGPGTKVDIK | % Block at 0.000128 nM [3]: 0%; % Block at 0.0128 nM [3]: 9.3%; % Block at 0.064 nM [3]: 35%; % Block at 0.32 nM [3]: 82.1%; % Block at 1.6 nM [3]: 98.1%; % Block at 8 nM [3]: 99.2%; % Block at 40 nM [3]: 99.4%; % Block at 200 nM [3]: 99.4%; MFI at 0.000128 nM [4]: 3; MFI at 0.0128 nM [4]: 24; MFI at 0.064 nM [4]: 74; MFI at 0.32 nM [4]: 233; MFI at 1.6 nM [4]: 553; MFI at 8 nM [4]: 795; MFI at 40 nM [4]: 967; MFI at 200 nM [4]: 963; Kd [5]: 2.36 nM; koff [5]: 0.0017 s⁻¹; kon [5]: 720000 M⁻¹ s⁻¹ |
| 0 | 25.6 | 48.1 | 84.4 | 99 | 99.1 | 99.1 | 99.2 | 1660 | 1630 | 1760 | 2000 | 2650 | 3630 | 4420 | 3330 | 5020 | 3810 | 5920 | 7370 | 31C12F3 fully human CTLA-4 antibody (human IgG1, kappa) (antibody, V domains shown, also called mAb010) VH: QVQLVESGGGVVQPGRSLILSCAASGFTFSSYGMHWVRQAPGKGLEWVAVVWYDGSNKYYADSVKGRFTISRDNSKNTLYLQMSSLRAEDTAVYYCARGGIVVPGLFEYWGQGSLVTVSS VL: DIQMTQSPSSLSASVGDRVAITCRTSQSISNLLNWYQQKPGKAPELLIYAPSSFQSGVPSRFRGSGSGTDFTLTISSLQPEDFATYYCQQSYSTPFTFGPGTKVDIK | % Block at 0.000128 nM [3]: 0%; % Block at 0.0128 nM [3]: 5.1%; % Block at 0.064 nM [3]: 30.4%; % Block at 0.32 nM [3]: 74.5%; % Block at 1.6 nM [3]: 95.9%; % Block at 8 nM [3]: 98.5%; % Block at 40 nM [3]: 99.1%; % Block at 200 nM [3]: 99.3%; MFI at 0.000128 nM [4]: 3; MFI at 0.0128 nM [4]: 34; MFI at 0.064 nM [4]: 96; MFI at 0.32 nM [4]: 260; MFI at 1.6 nM [4]: 547; MFI at 8 nM [4]: 756; MFI at 40 nM [4]: 941; MFI at 200 nM [4]: 998; Kd [5]: 2.62 nM; koff [5]: 0.00118 s⁻¹; kon [5]: 450000 M⁻¹ s⁻¹ |
| 0 | 25 | 36.7 | 78.5 | 98.7 | 99.2 | 99.2 | 99.2 | 1570 | 1390 | 2810 | 1860 | 3610 | 2930 | 4860 | 3490 | 6670 | 5200 | 7240 | 6590 | 92C8B6 fully human CTLA-4 antibody (human IgG1, kappa) (antibody, V domains shown, also called mAb42; mAb042) VH: QVQLVESGGGVVQPGRSLRLSCAASGFTFSNFGMHWVRQAPGKGLEWVAVIWYDGSNKYYADSVKGRFTISRDNSKNTLFLQMNGLRAEDTAVYYCAKGGILMAGTLDYWGQGTLVTVSS VL: DIQMTQSPSSLSASVGDRVTITCRASQSVSTYLNWYQQKPGKAPKLLIYAASSFQSGVPSRFSGSGSGTDFTLTISSLQPEDFATYFCQQSYSTPFTFGPGTKVDIK | % Block at 0.000128 nM [3]: 0%; % Block at 0.0128 nM [3]: 5.3%; % Block at 0.064 nM [3]: 21.4%; % Block at 0.32 nM [3]: 65.1%; % Block at 1.6 nM [3]: 93.7%; % Block at 8 nM [3]: 98.1%; % Block at 40 nM [3]: 98.9%; % Block at 200 nM [3]: 99.3%; MFI at 0.000128 nM [4]: 3; MFI at 0.0128 nM [4]: 23; MFI at 0.064 nM [4]: 67; MFI at 0.32 nM [4]: 203; MFI at 1.6 nM [4]: 509; MFI at 8 nM [4]: 827; MFI at 40 nM [4]: 1040; MFI at 200 nM [4]: 1060; Kd [5]: 2.52 nM; koff [5]: 0.00187 s⁻¹; kon [5]: 744000 M⁻¹ s⁻¹ |
